B1: N-terminal 3×-FLAG-tagged p52 (WT) [human] / XPB [human (endogenous in HEK293T)] (parent complex)
chain 1: MESTPSRGLNRVHLQCRNLQEFLGGLSPGVLDRLYGHPATCLAVFRELPSLAKNWVMRMLFLEQPLPQAAVALWVKKEFSKAQEESTGLLSGLRIWHTQLLPGGLQGLILNPIFRQNLRIALLGGGKAWSDDTSQLGPDKHARDVPSLDKYAEERWEVVLHFMVGSPSAAVSQDLAQLLSQAGLMKSTEPGEPPCITSAGFQFLLLDTPAQLWYFMLQYLQTAQSRGMDLVEILSFLFQLSFSTLGKDYSVEGMSDSLLNFLQHLREFGLVFQRKRKSRRYYPTRLAINLSSGVSGAGGTVHQPGFIVVETNYRLYAYTESELQIALIALFSEMLYRFPNMVVAQVTRESVQQAIASGITAQQIIHFLRTRAHPVMLKQTPVLPPTITDQIRLWELERDRLRFTEGVLYNQFLSQVDFELLLAHARELGVLVFENSAKRLMVVTPAGHSDVKRFWKRQKHSS
chain 2: MGKRDRADRDKKKSRKRHYEDEEDDEEDAPGNDPQEAVPSAAGKQVDESGTKVDEYGAKDYRLQMPLKDDHTSRPLWVAPDGHIFLEAFSPVYKYAQDFLVAIAEPVCRPTHVHEYKLTAYSLYAAVSVGLQTSDITEYLRKLSKTGVPDGIMQFIKLCTVSYGKVKLVLKHNRYFVESCHPDVIQHLLQDPVIRECRLRNSEGEATELITETFTSKSAISKTAESSGGPSTSRVTDPQGKSDIPMDLFDFYEQMDKDEEEEEETQTVSFEVKQEMIEELQKRCIHLEYPLLAEYDFRNDSVNPDINIDLKPTAVLRPYQEKSLRKMFGNGRARSGVIVLPCGAGKSLVGVTAACTVRKRCLVLGNSAVSVEQWKAQFKMWSTIDDSQICRFTSDAKDKPIGCSVAISTYSMLGHTTKRSWEAERVMEWLKTQEWGLMILDEVHTIPAKMFRRVLTIVQAHCKLGLTATLVREDDKIVDLNFLIGPKLYEANWMELQNNGYIAKVQCAEVWCPMSPEFYREYVAIKTKKRILLYTMNPNKFRACQFLIKFHERRNDKIIVFADNVFALKEYAIRLNKPYIYGPTSQGERMQILQNFKHNPKINTIFISKVGDTSFDLPEANVLIQISSHGGSRRQEAQRLGRVLRAKKGMVAEEYNAFFYSLVSQDTQEMAYSTKRQRFLVDQGYSFKVITKLAGMEEEDLAFSTKEEQQQLLQKVLAATDLDAEEEVVAGEFGSRSSQASRRFGTMSSMSGADDTVYMEYHSSRSKAPSKHVHPLFKRFRK
B2: N-terminal 3×-FLAG-tagged p52 (WT) [human] / p8 [human (endogenous in HEK293T)] (parent complex)
chain 1: B1 chain 1
chain 2: MVNVLKGVLIECDPAMKQFLLYLDESNALGKKFIIQDIDDTHVFVIAELVNVLQERVGELMDQNAFSLTQK

Variants of: B1
Assay: FLAG-IP–Western; HEK293T nuclear extracts; n = 3, biological replicates; read off a plot

response	Variant
~0.03 Normalized Western Signal	chain 1 MESTPSRGLNRVHLQCRNLQEFLGGLSPGVLDRLYGHPATCLAVFRELPSLAKNWVMRMLFLEQPLPQAAVALWVKKEFSKAQEESTGLLSGLRIWHTQLLPGGLQGLILNPIFRQNLRIALLGGGKAWSDDTSQLGPDKHARDVPSLDKYAEERWEVVLHFMVGSPSAAVSQDLAQLLSQAGLMKSTEPGEPPCITSAGFQFLLLDTPAQLWYFMLQYLQTAQSRGMDLVEILSFLFQLSFSTLGKDYSVEGMSDSLLNFLQHLREFGLVFQRKRKSRRYYPTRLAINLSSGVSGAGGTVHQPGFIVVETNYRLYAYTESELQIALIALFSEMLYAAPNMVVAQVTRESVQQAIASGITAQQIIHFLRTRAHPVMLKQTPVLPPTITDQIRLWELERDRLRFTEGVLYNQFLSQVDFELLLAHARELGVLVFENSAKRLMVVTPAGHSDVKRFWKRQKHSS [chain 1 R337A, chain 1 F338A]

Variants of: B1
Assay: FLAG-IP LC–MS (iBAQ); HEK293T nuclear extracts; n = 3, biological replicates; read off a plot

response	Variant
~0.67 Normalized Log2 iBAQ	chain 1 MESTPSRGLNRVHLQCRNLQEFLGGLSPGVLDRLYGHPATCLAVFRELPSLAKNWVMRMLFLEQPLPQAAVALWVKKEFSKAQEESTGLLSGLRIWHTQLLPGGLQGLILNPIFRQNLRIALLGGGKAWSDDTSQLGPDKHARDVPSLDKYAEERWEVVLHFMVGSPSAAVSQDLAQLLSQAGLMKSTEPGEPPCITSAGFQFLLLDTPAQLWYFMLQYLQTAQSRGMDLVEILSFLFQLSFSTLGKDYSVEGMSDSLLNFLQHLREFGLVFQRKRKSRRYYPTRLAINLSSGVSGAGGTVHQPGFIVVETNYRLYAYTESELQIALIALFSEMLYAAPNMVVAQVTRESVQQAIASGITAQQIIHFLRTRAHPVMLKQTPVLPPTITDQIRLWELERDRLRFTEGVLYNQFLSQVDFELLLAHARELGVLVFENSAKRLMVVTPAGHSDVKRFWKRQKHSS [chain 1 R337A, chain 1 F338A]

Variants of: B2
Assay: as above

Variant	response
chain 1 MESTPSRGLNRVHLQCRNLQEFLGGLSPGVLDRLYGHPATCLAVFRELPSLAKNWVMRMLFLEQPLPQAAVALWVKKEFSKAQEESTGLLSGLRIWHTQLLPGGLQGLILNPIFRQNLRIALLGGGKAWSDDTSQLGPDKHARDVPSLDKYAEERWEVVLHFMVGSPSAAVSQDLAQLLSQAGLMKSTEPGEPPCITSAGFQFLLLDTPAQLWYFMLQYLQTAQSRGMDLVEILSFLFQLSFSTLGKDYSVEGMSDSLLNFLQHLREFGLVFQRKRKSRRYYPTRLAINLSSGVSGAGGTVHQPGFIVVFTNYRLYAYTESELQIALIALFSEMLYRFPNMVVAQVTRESVQQAIASGITAQQIIHFLRTRAHPVMLKQTPVLPPTITDQIRLWELERDRLRFTEGVLYNQFLSQVDFELLLAHARELGVLVFENSAKRLMVVTPAGHSDVKRFWKRQKHSS [chain 1 E310F]	~0.86 Normalized Log2 iBAQ
chain 1 MESTPSRGLNRVHLQCRNLQEFLGGLSPGVLDRLYGHPATCLAVFRELPSLAKNWVMRMLFLEQPLPQAAVALWVKKEFSKAQEESTGLLSGLRIWHTQLLPGGLQGLILNPIFRQNLRIALLGGGKAWSDDTSQLGPDKHARDVPSLDKYAEERWEVVLHFMVGSPSAAVSQDLAQLLSQAGLMKSTEPGEPPCITSAGFQFLLLDTPAQLWYFMLQYLQTAQSRGMDLVEILSFLFQLSFSTLGKDYSVEGMSDSLLNFLQHLREFGLVFQRKRKSRRYYPTRLAINLSSGVSGAGGTVHQPGFIVVATNYALYAYTESELQIALIALFSEMLYRFPNMVVAQVTRESVQQAIASGITAQQIIHFLRTRAHPVMLKQTPVLPPTITDQIRLWELERDRLRFTEGVLYNQFLSQVDFELLLAHARELGVLVFENSAKRLMVVTPAGHSDVKRFWKRQKHSS [chain 1 E310A, chain 1 R314A]	~0.83 Normalized Log2 iBAQ

Now from value to variant:

response	Variant
~0.84 Normalized Log2 iBAQ	chain 1 MESTPSRGLNRVHLQCRNLQEFLGGLSPGVLDRLYGHPATCLAVFRELPSLAKNWVMRMLFLEQPLPQAAVALWVKKEFSKAQEESTGLLSGLRIWHTQLLPGGLQGLILNPIFRQNLRIALLGGGKAWSDDTSQLGPDKHARDVPSLDKYAEERWEVVLHFMVGSPSAAVSQDLAQLLSQAGLMKSTEPGEPPCITSAGFQFLLLDTPAQLWYFMLQYLQTAQSRGMDLVEILSFLFQLSFSTLGKDYSVEGMSDSLLNFLQHLREFGLVFQRKRKSRRYYPTRLAINLSSGVSGAGGTVHQPGFIVVETNYRLYAYTESELQIALIALFSEMLYAAPNMVVAQVTRESVQQAIASGITAQQIIHFLRTRAHPVMLKQTPVLPPTITDQIRLWELERDRLRFTEGVLYNQFLSQVDFELLLAHARELGVLVFENSAKRLMVVTPAGHSDVKRFWKRQKHSS [chain 1 R337A, chain 1 F338A]
~0.83 Normalized Log2 iBAQ	chain 1 MESTPSRGLNRVHLQCRNLQEFLGGLSPGVLDRLYGHPATCLAVFRELPSLAKNWVMRMLFLEQPLPQAAVALWVKKEFSKAQEESTGLLSGLRIWHTQLLPGGLQGLILNPIFRQNLRIALLGGGKAWSDDTSQLGPDKHARDVPSLDKYAEERWEVVLHFMVGSPSAAVSQDLAQLLSQAGLMKSTEPGEPPCITSAGFQFLLLDTPAQLWYFMLQYLQTAQSRGMDLVEILSFLFQLSFSTLGKDYSVEGMSDSLLNFLQHLREFGLVFQRKRKSRRYYPTRLAINLSSGVSGAGGTVHQPGFIVVETNYRLAAATESELQIALIALFSEMLYRFPNMVVAQVTRESVQQAIASGITAQQIIHFLRTRAHPVMLKQTPVLPPTITDQIRLWELERDRLRFTEGVLYNQFLSQVDFELLLAHARELGVLVFENSAKRLMVVTPAGHSDVKRFWKRQKHSS [chain 1 Y316A, chain 1 Y318A]

From publication PMC9557730 (2022)
